Reference: publication PMC9482650, “Quantitative fragmentomics allow affinity mapping of interactomes” (Nature Communications, 2022)

Tests used:
Assay in all cases: holdup assay
Set-up in all cases: key: below the threshold = too weak to quantify, mostly under pKd 3.1 to 4
CARD14, Q9BXL6 = conditions: plain residues with an end cap or a label only (N-terminal biotin on a linker: (peg)3)
CNKSR3, Q6P9H4 = target: CNKSR3, Q6P9H4
DLG5_2, Q8TDM6 = target: DLG5_2, Q8TDM6
INTU, Q9ULD6 = target: T1, INTU, Q9ULD6; conditions: plain residues with an end cap or a label only (N-terminal biotin on a linker: (peg)3)
T1 sequence (Q9ULD6 180-273, limits assumed, looked up): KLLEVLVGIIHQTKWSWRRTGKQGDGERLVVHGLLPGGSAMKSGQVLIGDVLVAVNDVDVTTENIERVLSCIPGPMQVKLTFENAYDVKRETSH

LNX2_4, Q8N448 = target: T2, LNX2_4, Q8N448
T2 sequence (Q8N448 595-690, limits assumed, looked up): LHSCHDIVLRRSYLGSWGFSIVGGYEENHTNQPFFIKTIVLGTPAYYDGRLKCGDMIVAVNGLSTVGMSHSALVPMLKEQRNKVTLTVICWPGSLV

MAGI1_3, Q96QZ7 = target: MAGI1_3, Q96QZ7
Chain of MAGI1_3, Q96QZ7 (Q96QZ7 638-725): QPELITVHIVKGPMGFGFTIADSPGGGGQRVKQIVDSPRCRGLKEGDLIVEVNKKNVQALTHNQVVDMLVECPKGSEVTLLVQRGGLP

MAGI1_5, Q96QZ7 = target: MAGI1_5, Q96QZ7
Chain of MAGI1_5, Q96QZ7 (Q96QZ7 986-1098): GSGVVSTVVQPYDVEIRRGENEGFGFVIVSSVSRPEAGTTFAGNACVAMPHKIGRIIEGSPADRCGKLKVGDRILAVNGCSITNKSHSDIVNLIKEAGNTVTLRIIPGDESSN

MAGI2_1, Q86UL8 = target: T3, MAGI2_1, Q86UL8
T3 sequence (Q86UL8 12-111, limits assumed, looked up): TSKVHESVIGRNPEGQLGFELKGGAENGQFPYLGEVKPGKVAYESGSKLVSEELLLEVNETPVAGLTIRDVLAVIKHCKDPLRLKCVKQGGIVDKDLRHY

MPP5, Q8N3R9 = target: T4, MPP5, Q8N3R9
T4 sequence (Q8N3R9 251-346, limits assumed, looked up): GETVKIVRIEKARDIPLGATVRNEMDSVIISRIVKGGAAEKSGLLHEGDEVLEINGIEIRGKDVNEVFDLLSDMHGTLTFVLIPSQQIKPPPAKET

PARD6G, Q9BYG4 = target: T5, PARD6G, Q9BYG4; conditions: plain residues with an end cap or a label only (N-terminal biotin on a linker: (peg)3)
T5 sequence (Q9BYG4 153-261, limits assumed, looked up): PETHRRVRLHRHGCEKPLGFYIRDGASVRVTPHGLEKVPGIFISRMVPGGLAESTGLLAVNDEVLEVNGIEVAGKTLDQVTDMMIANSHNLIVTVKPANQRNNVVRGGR

PDLIM4, P50479 = target: PDLIM4, P50479
Chain of PDLIM4, P50479 (P50479 1-83): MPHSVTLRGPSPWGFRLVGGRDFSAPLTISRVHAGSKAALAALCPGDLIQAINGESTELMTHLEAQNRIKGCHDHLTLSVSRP

PDZD2_1, O15018 = target: T6, PDZD2_1, O15018
T6 sequence (O15018 80-192, limits assumed, looked up): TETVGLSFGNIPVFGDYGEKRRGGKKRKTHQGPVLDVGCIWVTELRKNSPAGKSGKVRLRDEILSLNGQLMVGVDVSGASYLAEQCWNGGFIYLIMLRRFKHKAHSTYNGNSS

PDZD2_5, O15018 = target: T7, PDZD2_5, O15018
T7 sequence (O15018 2617-2716, limits assumed, looked up): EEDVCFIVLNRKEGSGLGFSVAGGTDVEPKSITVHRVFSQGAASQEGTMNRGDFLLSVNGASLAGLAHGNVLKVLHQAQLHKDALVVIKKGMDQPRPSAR

PDZD4, Q76G19 = target: T8, PDZD4, Q76G19
T8 sequence (Q76G19 125-224, limits assumed, looked up): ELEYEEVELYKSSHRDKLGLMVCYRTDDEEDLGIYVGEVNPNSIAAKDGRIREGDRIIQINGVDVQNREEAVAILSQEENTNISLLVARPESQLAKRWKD

PDZD7_1, Q9H5P4 = target: T9, PDZD7_1, Q9H5P4
T9 sequence (Q9H5P4 81-178, limits assumed, looked up): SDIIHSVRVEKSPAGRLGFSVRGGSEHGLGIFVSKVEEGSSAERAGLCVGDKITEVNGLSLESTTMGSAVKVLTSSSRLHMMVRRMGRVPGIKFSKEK

PTPN13_2, Q12923 = target: PTPN13_2, Q12923
Chain of PTPN13_2, Q12923 (Q12923 1363-1462): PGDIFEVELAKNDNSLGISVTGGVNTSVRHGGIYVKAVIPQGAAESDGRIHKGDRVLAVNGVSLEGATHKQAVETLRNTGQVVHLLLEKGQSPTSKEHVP

PTPN13_4, Q12923 = target: T10, PTPN13_4, Q12923
T10 sequence (Q12923 1783-1878, limits assumed, looked up): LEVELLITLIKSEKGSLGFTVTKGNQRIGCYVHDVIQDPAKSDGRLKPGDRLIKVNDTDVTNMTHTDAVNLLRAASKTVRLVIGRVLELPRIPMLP

PTPN4, P29074 = target: T11, PTPN4, P29074
T11 sequence (P29074 512-599, limits assumed, looked up): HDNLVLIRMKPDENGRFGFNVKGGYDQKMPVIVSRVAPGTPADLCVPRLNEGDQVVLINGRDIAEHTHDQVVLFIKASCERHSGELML

SCRIB_4, Q14160 = target: SCRIB_4, Q14160
Chain of SCRIB_4, Q14160 (Q14160 1095-1204): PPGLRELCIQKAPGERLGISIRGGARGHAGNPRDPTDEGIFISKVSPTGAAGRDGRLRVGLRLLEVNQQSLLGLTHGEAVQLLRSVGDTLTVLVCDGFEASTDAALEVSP

SHANK2, Q9UPX8 = target: T12, SHANK2, Q9UPX8
T12 sequence (Q9UPX8 621-730, limits assumed, looked up): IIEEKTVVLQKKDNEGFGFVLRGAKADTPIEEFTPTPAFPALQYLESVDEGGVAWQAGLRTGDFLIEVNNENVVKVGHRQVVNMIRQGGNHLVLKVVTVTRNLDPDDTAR

TJP1_1, Q07157 = target: TJP1_1, Q07157
Chain of TJP1_1, Q07157 (Q07157 18-120): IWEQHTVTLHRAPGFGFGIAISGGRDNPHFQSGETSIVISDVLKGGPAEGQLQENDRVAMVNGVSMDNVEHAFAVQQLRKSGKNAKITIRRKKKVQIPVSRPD

TJP3_1, O95049 = target: T13, TJP3_1, O95049
T13 sequence (O95049 6-103, limits assumed, looked up): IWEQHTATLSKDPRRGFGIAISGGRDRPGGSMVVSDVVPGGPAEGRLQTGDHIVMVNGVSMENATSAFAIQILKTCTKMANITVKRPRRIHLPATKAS

USH1C_3, Q9Y6N9 = target: T14, USH1C_3, Q9Y6N9
T14 sequence (Q9Y6N9 447-547, limits assumed, looked up): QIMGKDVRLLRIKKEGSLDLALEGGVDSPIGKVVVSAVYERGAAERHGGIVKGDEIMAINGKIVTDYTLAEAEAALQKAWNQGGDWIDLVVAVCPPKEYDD

[1] = plain residues with an end cap or a label only (N-terminal biotin on a linker: (peg)3)
[2] = modified: phospho on T at position -2 from the C-terminal residue

Chain of CNKSR3, Q6P9H4 (Q6P9H4 203-303): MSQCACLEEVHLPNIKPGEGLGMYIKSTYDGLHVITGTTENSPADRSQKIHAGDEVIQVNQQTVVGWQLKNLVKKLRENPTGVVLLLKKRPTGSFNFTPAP
Chain of DLG5_2, Q8TDM6 (Q8TDM6 714-800): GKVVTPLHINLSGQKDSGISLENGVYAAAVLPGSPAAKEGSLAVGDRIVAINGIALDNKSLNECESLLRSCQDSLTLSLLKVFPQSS
Chain of CARD14, Q9BXL6 (Q9BXL6 558-663): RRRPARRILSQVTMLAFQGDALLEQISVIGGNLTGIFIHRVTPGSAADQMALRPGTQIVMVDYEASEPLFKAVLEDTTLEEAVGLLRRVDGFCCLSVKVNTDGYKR

QQSMSSADSTQA [SARS-Cov2-N, P0DTC9]
pKd (CARD14, Q9BXL6): below the threshold
pKd (CNKSR3, Q6P9H4; [1]): below the threshold
pKd (DLG5_2, Q8TDM6; [1]): below the threshold
pKd (INTU, Q9ULD6): below the threshold
pKd (LNX2_4, Q8N448; [1]): below the threshold
pKd (MAGI1_3, Q96QZ7; [1]): below the threshold
pKd (MAGI1_5, Q96QZ7; [1]): below the threshold
pKd (MAGI2_1, Q86UL8; [1]): below the threshold
pKd (MPP5, Q8N3R9; [1]): below the threshold
pKd (PARD6G, Q9BYG4): below the threshold
pKd (PDLIM4, P50479; [1]): below the threshold
pKd (PDZD2_1, O15018; [1]): below the threshold
pKd (PDZD2_5, O15018; [1]): below the threshold
pKd (PDZD4, Q76G19; [1]): below the threshold
pKd (PDZD7_1, Q9H5P4; [1]): below the threshold
pKd (PTPN13_2, Q12923; [1]): below the threshold
pKd (PTPN13_4, Q12923; [1]): below the threshold
pKd (PTPN4, P29074; [1]): below the threshold
pKd (SCRIB_4, Q14160; [1]): below the threshold
pKd (SHANK2, Q9UPX8; [1]): below the threshold
pKd (TJP1_1, Q07157; [1]): below the threshold
pKd (TJP3_1, O95049; [1]): below the threshold
pKd (USH1C_3, Q9Y6N9; [1]): below the threshold

RYEDTTLVEDTVL [WNV-NS5, Q9Q6P4]
pKd (CARD14, Q9BXL6): below the threshold
pKd (DLG5_2, Q8TDM6; [1]): below the threshold
pKd (INTU, Q9ULD6): below the threshold
pKd (LNX2_4, Q8N448; [1]): below the threshold
pKd (MAGI1_3, Q96QZ7; [1]): below the threshold
pKd (MAGI1_5, Q96QZ7; [1]): 3.84
pKd (MAGI2_1, Q86UL8; [1]): below the threshold
pKd (MPP5, Q8N3R9; [1]): below the threshold
pKd (PARD6G, Q9BYG4): below the threshold
pKd (PDLIM4, P50479; [1]): below the threshold
pKd (PDZD2_1, O15018; [1]): below the threshold
pKd (PDZD2_5, O15018; [1]): below the threshold
pKd (PDZD4, Q76G19; [1]): below the threshold
pKd (PDZD7_1, Q9H5P4; [1]): below the threshold
pKd (PTPN13_2, Q12923; [1]): below the threshold
pKd (PTPN13_4, Q12923; [1]): below the threshold
pKd (PTPN4, P29074; [1]): below the threshold
pKd (SCRIB_4, Q14160; [1]): below the threshold
pKd (SHANK2, Q9UPX8; [1]): 4.59
pKd (TJP1_1, Q07157; [1]): below the threshold
pKd (TJP3_1, O95049; [1]): below the threshold
pKd (USH1C_3, Q9Y6N9; [1]): below the threshold

SSRTRRETQL [HPV16-E6_-2P, P03126]
pKd (CNKSR3, Q6P9H4; [2]): below the threshold
pKd (DLG5_2, Q8TDM6; [2]): below the threshold
pKd (LNX2_4, Q8N448; [2]): below the threshold
pKd (MAGI1_3, Q96QZ7; [2]): below the threshold
pKd (MAGI1_5, Q96QZ7; [2]): below the threshold
pKd (MAGI2_1, Q86UL8; [2]): below the threshold
pKd (MPP5, Q8N3R9; [2]): below the threshold
pKd (PDLIM4, P50479; [2]): below the threshold
pKd (PDZD2_1, O15018; [2]): below the threshold
pKd (PDZD2_5, O15018; [2]): below the threshold
pKd (PDZD4, Q76G19; [2]): below the threshold
pKd (PDZD7_1, Q9H5P4; [2]): below the threshold
pKd (PTPN13_2, Q12923; [2]): below the threshold
pKd (PTPN13_4, Q12923; [2]): below the threshold
pKd (PTPN4, P29074; [2]): below the threshold
pKd (SCRIB_4, Q14160; [2]): below the threshold
pKd (SHANK2, Q9UPX8; [2]): below the threshold
pKd (TJP1_1, Q07157; [2]): below the threshold
pKd (TJP3_1, O95049; [2]): below the threshold
pKd (USH1C_3, Q9Y6N9; [2]): below the threshold

RRRRSQSRESQC [HBV-HBc, P03193]
pKd (CARD14, Q9BXL6): below the threshold
pKd (CNKSR3, Q6P9H4; [1]): below the threshold
pKd (DLG5_2, Q8TDM6; [1]): below the threshold
pKd (INTU, Q9ULD6): below the threshold
pKd (LNX2_4, Q8N448; [1]): 3.9
pKd (MAGI1_3, Q96QZ7; [1]): below the threshold
pKd (MAGI1_5, Q96QZ7; [1]): below the threshold
pKd (MAGI2_1, Q86UL8; [1]): below the threshold
pKd (MPP5, Q8N3R9; [1]): below the threshold
pKd (PARD6G, Q9BYG4): below the threshold
pKd (PDLIM4, P50479; [1]): below the threshold
pKd (PDZD2_1, O15018; [1]): below the threshold
pKd (PDZD4, Q76G19; [1]): below the threshold
pKd (PDZD7_1, Q9H5P4; [1]): below the threshold
pKd (PTPN13_2, Q12923; [1]): 3.99
pKd (PTPN13_4, Q12923; [1]): below the threshold
pKd (PTPN4, P29074; [1]): 4.94
pKd (SCRIB_4, Q14160; [1]): below the threshold
pKd (SHANK2, Q9UPX8; [1]): below the threshold
pKd (TJP1_1, Q07157; [1]): below the threshold
pKd (TJP3_1, O95049; [1]): below the threshold
pKd (USH1C_3, Q9Y6N9; [1]): below the threshold
